Sequences and labels used below:
B1: PRT-676 (protein)
chain: MQITSVWTKGVTPPTMDQFTNYNYDVFHAPYKPGQGWYDITKTFDGKDNLLCGAATAGNMLHWWFDQNKEEIENYLKKHPEKQKIIFNNQKMFDLRKAINTKDSQTNSALFNYFKDKAFPNLSARQKGVMPDLVLDMFINGYYLNLGKTQSTDVNREYQTKDSRGGIFDDVFGRGDQTKLLTARHDLYNGGLNDISQLIKQELSSGKALGLSHTYANVRYSHVINLWGADFDEEGNLEAIYVTDSDDDASIGMKKYYVGKNASGKVAISAKKIEGENIGAQVLGLFTLSSGKEIWQKLSLEHHHHHH
B2: PRT-645 (protein)
chain: MQITSVWTKGVTPLTPEQFRYNNEDVIHAPYLAHQGWYDITKAFDGKDNLLCGAATAGNMLHWWFDQNKTEIEAYLSKHPEKQKIIFNNQELFDLKAAIDTKDSQTNSQLFNYFRDKAFPNLSARQLGVMPDLVLDMFINGYYLNVFKTQSTDVNRPYQDKDKRGGIFDAVFTRGDQTTLLTARHDLKNKGLNDISTIIKQELTEGRALALSHTYANVSISHVINLWGADFNAEGNLEAIYVTDSDANASIGMKKYYVGYNKSGRVAISAYKITDENIGAQVLGLFTLSSGKDIWQKLSLEHHHHHH
B3: PRT-626 (protein)
chain: MQITSVWTKGVTPLTPEQFRYNNEDVIHAPYLAHQGWYDITKAFDGKDNLLCGAATAGNMLHWWFDQNKTEIEAYLSKHPEKQKIIFNNQELFDLKAAIDTKDSQTNSQLFNYFRDKAFPNLSARQLGVMPDLVLDMFINGYYLNVFKTQSTDVNRPPDDKDKRGGIFDHVFNRGDQTTLLTARHDLKNKGLNDISTIIKQELTEGRALALSHTYANVSISHVINLWGADFNAEGNLEAIYVTDSDANASIGMKKYFVGINAHGHVAISAKKIEGENIGAQVLGLFTLSSGKDIWQKLSLEHHHHHH
B4: PRT-628 (protein)
chain: MQITSVWTKGVTPLTPEQFRYNNEDVIHAPYLAHQGWYDITKAFDGKDNLLCGAATAGNMLHWWFDQNKEEIEAYLKKHPEKQKIIFNNQELFDLKAAIDTKDSQTNSQLFNYFRDKAFPNLSARQLGVMPDLVLDMFINGYYLNVFKTQSTDVNRPYQDKDKRGGIFDAVFTRGDQTTLLTARHDLKNKGLNDISTIIKQELTEGRALALSHTYANVSISHVINLWGADFNAEGNLEAIYVTDSDANASIGMKKYFVGINAHGHVAISAKKIEGENIGAQVLGLFTLSSGQDIWQQLSLEHHHHHH
B5: PRT-680 (protein)
chain: MQITSVWTKGVTPLTPEQFRYNNEDVIHAPYLPHQGWYDITKAFDGKDNLLCGAATAGNMLHWWFDQNKTEIEAYLSKHPEKQKIIFNNQELFDLRAAINTKDSQTNSALFNYFRDKAFPNLSARQLGVMPDLVLDMFINGYYLNVFKTQSTDVNRPYQDKDKRGGIFDAVFTRGDQTTLLTARHDLKNKGLNDISTIIKQELTEGKALALSHTYANVSISHVINLWGADFNAEGNLEAIYVTDSDANASIGMKKYYVGINAHGHVAISAKKIEGENIGAQVLGLFTLSSGKDIWQKLSLEHHHHHH
B6: PRT-652 (protein)
chain: MQITSVWTKGVTPLTPEQFRYNNEDVIHAPYLAHQGWYDITKAFDGKDNLLCGAATAGNMLHWWFDQNKTEIEAYLSKHPEKQKIIFNNQELFDLKAAIDTKDSQTNSQLFNYFRDKAFPNLSARQLGVMPDLVLDMFINGYYLNVFKTQSTDVNRPYQDKDKRGGIFDAVFTRGDQTTLLTARHDLKNKGLNDISTIIKQELTEGRALALSHGTANGGYSHVINLWGADFNAEGNLEAIYVTDSDANASIGMKKYFVGINAHGHVAISAKKIEGENKGAQVLGLFTLSSGKDIWQKLSLEHHHHHH
B7: PRT-604 (protein)
chain: MQITSVWTKGVTPLTPEQFRYNNEDVIHAPYLAHQGWYDITKAFDGKDNLLCGAATAGNMLHWWFDQNKTEIEAYLSKHPEKQKIIFNNQELFDLKAAIDTKDSQTNSQLFNYFRDKAFPNLSARQLGVMPDLVLDMFINGYYLNVFKTQSTDVNRPYQDKDKRGGIFDDVFGKGDQTTLLTARHDLKNKGLNDISTIIKQELTEGRALALSHTYANVSISHVINLWGADFNAEGNLEAIYVTDSDANASIGMKKYFVGINAHGHVAISAKKIEGENIGAQVLGLFTLSSGKDIWQKLSLEHHHHHH
B8: PRT-570 (protein)
chain: MANQEIRYSEATPSHITSVWTKGVTPPEQFIQNEDVLHAPYIANQGWYDITKTFNGKDDLLCGAATAGNMLHWWFDQNKEQIEAYLKKHPEKQKINFNGEQMFDVKEAIDTKDSQTDSALFNYFKDKAFPYLSTKHLGVFPDHVIDMFINGYRLSLTNHGPTPVKEQTKDPRGGIFDAVFTRGDQSKLLTSRHDFKEKTLKEISQLIKQELTEGKALGLSHTYANVRINHVINLWGADFNAEGNLEAIYVTDSDSNASIGMKKYYVGVNSAGKVAISAKEIEGDNIGAQVLGLFTLSTGQDIWQQTNLEHHHHHH
B9: PRT-616 (protein)
chain: MQITTVWTKGVTPLTPEQFRYNNEDVIHAPYLPHQGWYDITKAFDGKDNLLCGAATAGNMLHWWFDQNKTEIEAYLSKYPEKQKIIFNNQELFDLRAAINTKDSQTNSQLFNYFRDKAFPNLSARQLGVMPDLVLDMFINGYYLNVFKTQSTDVNRPYQDRDKRGGIFDAVFNRGDQTTLLTARHDLKNKGLNDISTIIKQELSSGRALALSHTYANVSISHVINLWGADFNAEGNLEAIYVTDSDANASIGMKKYYVGINAHGHVAISAKKIEGENIGAQVLGLFTLSSGKDIWQKLSLEHHHHHH
B10: PRT-557 (protein)
chain: MANQEIRYSEEDGKTITSVWTKGVTPPTDFQKNEDVYHAPYVANQGWYDITKTFNGKDDLLCGAATAGNMLHWWFDQNKEEIERYLKKHPEKQKINFNGEQMFDVKEAIDTKDSQTDSALFEYFKDKAFPYLSTKHLGVFPDHVIDMFINGYRLSLTNHGPTPVKDGTKDPRGGIFDAVFTRGDQTKLLTERHDFKEKTLNEISDLIKQELQEGKALGLSHTYANVRINHVINLWGADFDSEGNLEAIYVTDSDSNASIGMKKYYVGVNSAGKVAISAKEIEDDNIGAQVLGLFTLSTGKDIWEQTNLEHHHHHH
B11: PRT-649 (protein)
chain: MQITSVWTKGVTPLTPEQFRYNNEDVIHAPYLAHQGWYDITKAFDGKDNLLCGAATAGNMLHWWFDQNKTEIEAYLSKHPEKQKIIFNNQYLFDLKAAIDTKDSQTNSQLFNYFRDKAFGNLSARQLGVMPDLVLDMFINGYKLKVNKTQSTDVNRPYQKPDNFGGIFDAVFTRGDQTTLLTARHDLKNKGLNDISTIIKQELTEGRALALSHTYANVSISHVINLWGADFNAEGNLEAIYVTDSDANASIGMKKYFVGINAHGHVAISAKKIEGENIGAQVLGLFTLSSGKDIWQKLSLEHHHHHH
B12: PRT-669 (protein)
chain: MQITSVWTKGVTPPTPEQFTNNNEDVFHAPYLANQGWYDITKTFNGKDNLLCGAATAGNMLHWWFDQNKEQIEAYLKKHPEKQKIIFNNQEMFDLKKAIDTKDSQTNSALFNYFRDKAFPNLSARQLGVMPDLVLDMFINGYYLNVGKTQSTDVNRPYQTKDKRGGIFDAVFTRGDQTKLLTARHDLKNKGLNEISDLIKQELTEGKALALSHTYANVRINHVINLWGADFNAEGNLIAIYVTDSDSNASIGMKKYFVGVNSAGKVAISAKKIEGDNIGAQVLGLFTLSSGQDIWQKLSLEHHHHHH
B13: PRT-638 (protein)
chain: MQITSVWTKGVTPLTPEQFRYNNEDVIHAPYLAHQGWYDITKLNDTGDGLLCGAATAGNMLHWWFDQNKTEIEAYLSKHPEKQKIIFNNQELFDLKAAIDTKDSQTNSQLFNYFRDKAFPNLSARQKGVMPDLVLDMFINGYYLNVFKTQSTDVNRPYQDKDKRGGIFDAVFTRGDQTTLLTARHDLKNKGLNDISTIIKQELTEGRALALSHTYANVSISHVINLWGADFNAEGNLEAIYVTDSNAGNGIGMKKYFVGINAHGHVAISAKKIEGENIGAQVLGLFTLSSGKDIWQKLSLEHHHHHH

The data set addresses pooled human IgG (human IgG1,2,3 and 4).
Turning to B1, the Enzyme activity endpoint: Fab′2 is 107 ng/µL, the Enzyme activity endpoint: Fc is 136 ng/µL, the Enzyme activity endpoint: IgG was found to be 0 ng/µL and the Enzyme activity endpoint: scIgG came to 118 ng/µL.

As for B2, the Enzyme activity endpoint: Fab′2 was 683 ng/µL, the Enzyme activity endpoint: Fc came out at 455 ng/µL, the Enzyme activity endpoint: IgG came to 0 ng/µL and the Enzyme activity endpoint: scIgG is 236 ng/µL.

The protein B3 came in with an Enzyme activity endpoint: Fab′2 of 569 ng/µL, an Enzyme activity endpoint: Fc of 388 ng/µL, an Enzyme activity endpoint: IgG of 0 ng/µL and an Enzyme activity endpoint: scIgG of 225 ng/µL.

B4 gave an Enzyme activity endpoint: Fab′2 of 852 ng/µL, an Enzyme activity endpoint: Fc of 465 ng/µL, an Enzyme activity endpoint: IgG of 0 ng/µL and an Enzyme activity endpoint: scIgG of 0 ng/µL.

Turning to B5, the Enzyme activity endpoint: Fab′2 came to 752 ng/µL, the Enzyme activity endpoint: Fc came out at 451 ng/µL, the Enzyme activity endpoint: IgG turned out to be 0 ng/µL and the Enzyme activity endpoint: scIgG came out at 277 ng/µL.

In the case of B6, the Enzyme activity endpoint: Fab′2 was found to be 410 ng/µL, the Enzyme activity endpoint: Fc is 0 ng/µL, the Enzyme activity endpoint: IgG is 789 ng/µL and the Enzyme activity endpoint: scIgG turned out to be 12 ng/µL.

As to B7, the Enzyme activity endpoint: Fab′2 came to 51 ng/µL, the Enzyme activity endpoint: Fc was determined as 276 ng/µL, the Enzyme activity endpoint: IgG was found to be 396 ng/µL and the Enzyme activity endpoint: scIgG was 964 ng/µL.

As to B8, the Enzyme activity endpoint: Fab′2 came to 551 ng/µL, the Enzyme activity endpoint: Fc worked out at 126 ng/µL, the Enzyme activity endpoint: IgG is 0 ng/µL and the Enzyme activity endpoint: scIgG was 0 ng/µL.

The protein B9 displayed an Enzyme activity endpoint: Fab′2 of 943 ng/µL, an Enzyme activity endpoint: Fc of 495 ng/µL, an Enzyme activity endpoint: IgG of 0 ng/µL and an Enzyme activity endpoint: scIgG of 0 ng/µL.

As for B10, the Enzyme activity endpoint: Fab′2 came out at 512 ng/µL, the Enzyme activity endpoint: Fc was 410 ng/µL, the Enzyme activity endpoint: IgG was 0 ng/µL and the Enzyme activity endpoint: scIgG turned out to be 194 ng/µL.

For B11, the Enzyme activity endpoint: Fab′2 came out at 657 ng/µL, the Enzyme activity endpoint: Fc is 32 ng/µL, the Enzyme activity endpoint: IgG was determined as 886 ng/µL and the Enzyme activity endpoint: scIgG came out at 24 ng/µL.

For the protein B12, the Enzyme activity endpoint: Fab′2 worked out at 808 ng/µL, the Enzyme activity endpoint: Fc amounted to 457 ng/µL, the Enzyme activity endpoint: IgG came to 0 ng/µL and the Enzyme activity endpoint: scIgG was 0 ng/µL.

For B13, the Enzyme activity endpoint: Fab′2 was determined as 550 ng/µL, the Enzyme activity endpoint: Fc amounted to 10 ng/µL, the Enzyme activity endpoint: IgG turned out to be 823 ng/µL and the Enzyme activity endpoint: scIgG is 17 ng/µL.

Source of the values: patent US20250027068.
